According to US20140155325A1 (Janssen / Centocor, published 2014):
Each block holds one binder with its values, some of them ahead of it.

Columns and labels:
[1] = molecular target: human EGFR (epidermal growth factor receptor) on cells (human) (UniProt P00533)
[2] = molecular target: human EGFR (epidermal growth factor receptor) on cells (human) (UniProt P00533); remark: listed apart in the source
[3] = molecular target: human EGFR (epidermal growth factor receptor) on cells (human) (UniProt P00533); experiment: cell-based or functional assay
[4] = molecular target: human EGFR (epidermal growth factor receptor) on cells (human) (UniProt P00533); remark: listed apart in the source
[5] = molecular target: human c-Met (hepatocyte growth factor receptor) on cells (human, UniProt P08581 25-1390); experiment: cell-based or functional assay
[6] = molecular target: T1, human EGFR (epidermal growth factor receptor) on cells (human, UniProt P00533 25-1210); experiment: cell-based or functional assay
[7] = molecular target: T1, human EGFR (epidermal growth factor …); experiment: cell-based or functional assay; remark: listed apart in the source
[8] = molecular target: T1, human EGFR (epidermal growth factor …); experiment: cell-based or functional assay; remark: listed apart in the source
[9] = molecular target: T1, human EGFR (epidermal growth factor …); experiment: A431 cell EGF competition (biotinylated EGF)
[10] = molecular target: T1, human EGFR (epidermal growth factor …); experiment: A431 cell binding, anti-His-Alexa488
[11] = molecular target: T1, human EGFR (epidermal growth factor …); experiment: cell-based or functional assay; remark: listed apart in the source
[12] = molecular target: T2, recombinant human extracellular domain of EGFR fused to an IgG1 Fc (human, UniProt P00533 25-645); experiment: SPR (ProteOn), EGFR-Fc captured by anti-human Fc
T2 construct: Bought from R&D Systems; captured on anti-human Fc IgG in the SPR assays; also called EGFR-Fc; recombinant EGFR extracellular domain; not shown: IgG1 Fc of the bought fusion protein (R&D Systems)
Description: Select EGFR-binding FN3 domains were screened to identify those with slow off-rates (koff) in binding to EGFR-Fc on a ProteOn XPR-36 instrument (Bio-Rad) to facilitate selection of high affinity binders. Goat anti-human Fc IgG (R&D systems), at a concentration of 5 μg/mL, was directly immobilized via amine coupling (at pH 5.0) on all 6 ligand channels in horizontal orientation on the chip with a flow rate of 30 μL/min in PBS containing 0.005% Tween-20. The immobilization densities averaged about 1500 Response Units (RU) with less than 5% variation among different channels. EGFR-Fc was captured on the anti-human Fc IgG surface to a density around 600 RU in vertical ligand orientation. All tested FN3 domains were normalized to a concentration of 1 μM and tested for their binding in horizontal orientation. All 6 analyte channels were used for the FN3 domains to maximize screening throughput. The dissociation phase was monitored for 10 minutes at a flow rate of 100 μL/min. The inter-spot binding signals were used as references to monitor non-specific binding between analytes and the immobilized IgG surface, and were subtracted from all binding responses. […]
Binding affinity of selected EGFR-binding FN3 domains to recombinant EGFR extracellular domain was further characterized by surface Plasmon resonance methods using a Proteon Instrument (BioRad). […]

[13] = molecular target: recombinant human c-Met Fc chimera (human) (UniProt P08581); experiment: SPR (ProteOn), c-Met-Fc captured by anti-human Fc
[14] = molecular target: recombinant human c-Met Fc chimera (human) (UniProt P08581); experiment: HGF competition (biotinylated HGF on coated c-Met-Fc)
[15] = molecular target: recombinant human c-Met Fc chimera (human) (UniProt P08581); experiment: SPR (ProteOn), protocol of Example 3

IC50, inhibition of EGF-stimulated EGFR phosphorylation (relative pEGFR, RCLU) in H596 cells, +2.5 ng/mL EGF [+2.5ng/mL EGF), IC50 table] [1]: 83.2 nM | IC50, inhibition of EGF-stimulated EGFR phosphorylation (relative pEGFR, RCLU) in H441 cells, +10 ng/mL EGF [+10ng/mL EGF), IC50 table] [2]: 2.3 nM | fold decrease of the IC50 for inhibition of EGFR phosphorylation in NCI-H441 cells against monospecific P53A1R5-17v2 [3]: 30 fold | IC50, inhibition of EGF-stimulated EGFR phosphorylation (relative pEGFR, RCLU) in H292 cells, +50 ng/mL EGF [+50ng/mL EGF), IC50 table] [4]: 76.6 nM
B1: ECB5 (designed binder, not shown: small tags and cut ends)
chain: MLPAPKNLVVSEVTEDSARLSWADPHGFYDSFLIQYQESEKVGEAIVLTVPGSERSYDLTGLKPGTEYTVSIYGVHNVYKDTNMRGLPLSAIFTTGGGGSGGGGSGGGGSGGGGSMLPAPKNLVVSRVTEDSARLSWTAPDAAFDSFWIRYFEFLGSGEAIVLTVPGSERSYDLTGLKPGTEYVVNIMGVKGGKISPPLSAIFTT

IC50, inhibition of HGF-stimulated c-Met phosphorylation (relative pc-Met, RCLU) in H596 cells, +5 ng/mL HGF [+5ng/mL HGF), IC50 table] [5]: 0.0789 nM
B2: Bispecific Centyrin (83-H9) (designed binder)
chain: MLPAPKNLVVSEVTEDSARLSWDDPWAFYESFLIQYQESEKVGEAIVLTVPGSERSYDLTGLKPGTEYTVSIYGVHNVYKDTNMRGLPLSAIFTTGGGGSGGGGSGGGGSGGGGSMLPAPKNLVVSRVTEDSARLSWTAPDAAFDSFWIRYFEFLGSGEAIVLTVPGSERSYDLTGLKPGTEYVVQIIGVKGGHISLPLSAIFTT

IC50, inhibition of EGF-stimulated EGFR phosphorylation (relative pEGFR, RCLU) in H441 cells, +10 ng/mL EGF [+10ng/mL EGF), IC50 table] [6]: 70.2 nM | IC50, inhibition of EGF-stimulated EGFR phosphorylation (relative pEGFR, RCLU) in H292 cells, +50 ng/mL EGF [+50ng/mL EGF), IC50 table] [7]: 151 nM | IC50, inhibition of EGF-stimulated EGFR phosphorylation (relative pEGFR, RCLU) in H596 cells, +2.5 ng/mL EGF [+2.5ng/mL EGF), IC50 table] [8]: 35.4 nM
B3: P53A1R5-17 (designed binder, not shown: small tags and cut ends)
chain: LPAPKNLVVSEVTEDSLRLSWADPHGFYDSFLIQYQESEKVGEAINLTVPGSERSYDLTGLKPGTEYTVSIYGVHNVYKDTNMRGLPLSAEFTT

IC50 [9]: 7.1 nM | EC50 [10]: 8.6 nM | NCI-H292 Growth IC50 [11]: 44 nM | NCI-H322 Growth IC50 [11]: 39 nM | Phospho-EGFR IC50 (EGF-stimulated, A431 cells) [11]: 295 nM | Kd [12]: 2.51 nM
B4: P54AR4-47 (designed binder)
chain: LPAPKNLVVSEVTEDSLRLSWWDPFSFYDSFLIQYQESEKVGEAINLTVPGSERSYDLTGLKPGTEYTVSIYGVHNVYKDTNMRGLPLSAEFTT

Kd [13]: 3.3 nM | IC50 [14]: 2.9 nM | IC50, inhibition of HGF-stimulated c-Met phosphorylation (relative pc-Met, RCLU) in H596 cells, +5 ng/mL HGF [+5ng/mL HGF), IC50 table] [5]: 80.8 nM
B5: P114AR7P93-H9 (designed binder, not shown: small tags and cut ends)
chain: LPAPKNLVVSRVTEDSARLSWTAPDAAFDSFWIRYFEFLGSGEAIVLTVPGSERSYDLTGLKPGTEYVVQIIGVKGGHISLPLSAIFTT

Kd [13]: 4.2 nM | IC50 [14]: 1.4 nM
B6: P114AR7P95-F10 (designed binder, not shown: small tags and cut ends)
chain: LPAPKNLVVSRVTEDSARLSWTAPDAAFDSFWIRYFEFTTAGEAIVLTVPGSERSYDLTGLKPGTEYVVNIMGVKGGSISPPLSAIFTT

EC50 [10]: > 20000 nM
B7: P54CR4-31 (designed binder)
chain: LPAPKNLVVSEVTEDSLRLSWTAPDAAFDSFLIQYQESEKVGEAINLTVPGSERSYDLTGLKPGTEYTVSIYGVLGSYVFEHDVMLPLSAEFTT
notes: not shown: C-terminal poly-histidine tag

Kd [15]: 2.1 nM
B8: ECB109 (designed binder, not shown: small tags and cut ends)
chain: MLPAPKNLVVSEVTEDSARLSWDDPHAFYESFLIQYQESEKVGEAIVLTVPGSERSYDLTGLKPGTEYTVSIYGVHNVYKDTNIRGLPLSAIFTTAPAPAPAPAPLPAPKNLVVSRVTEDSARLSWTAPDAAFDSFWIRYFEFLGSGEAIVLTVPGSERSYDLTGLKPGTEYVVNILSVKGGSISPPLSAIFTT

Kd [15]: 25.5 nM
B9: ECB108 (designed binder, not shown: small tags and cut ends)
chain: MLPAPKNLVVSEVTEDSARLSWDDPHAFYESFLIQYQESEKVGEAIVLTVPGSERSYDLTGLKPGTEYTVSIYGVHNVYKDTNIRGLPLSAIFTTAPAPAPAPAPLPAPKNLVVSRVTEDSARLSWTAPDAAFDSFWIRYFEFVSKGDAIVLTVPGSERSYDLTGLKPGTEYVVNILGVKGGSISPPLSAIFTT

Kd [15]: 2.6 nM
B10: ECB15 (designed binder, not shown: small tags and cut ends)
chain: MLPAPKNLVVSEVTEDSARLSWDDPWAFYESFLIQYQESEKVGEAIVLTVPGSERSYDLTGLKPGTEYTVSIYGVHNVYKDTNMRGLPLSAIFTTAPAPAPAPAPLPAPKNLVVSRVTEDSARLSWTAPDAAFDSFWIRYFEFLGSGEAIVLTVPGSERSYDLTGLKPGTEYVVNIMGVKGGKISPPLSAIFTT

Kd [15]: 6.2 nM
B11: ECB95 (designed binder, not shown: small tags and cut ends)
chain: MLPAPKNLVVSEVTEDSARLSWDDPWAFYESFLIQYQESEKVGEAIVLTVPGSERSYDLTGLKPGTEYTVSIYGVHNVYKDTNIRGLPLSAIFTTAPAPAPAPAPLPAPKNLVVSRVTEDSARLSWTAPDAAFDSFWIRYFEFVGSGEAIVLTVPGSERSYDLTGLKPGTEYVVNILGVKGGSISPPLSAIFTT

Kd [15]: 22.1 nM
B12: ECB96 (designed binder, not shown: small tags and cut ends)
chain: MLPAPKNLVVSEVTEDSARLSWDDPWAFYESFLIQYQESEKVGEAIVLTVPGSERSYDLTGLKPGTEYTVSIYGVHNVYKDTNIRGLPLSAIFTTAPAPAPAPAPLPAPKNLVVSRVTEDSARLSWTAPDAAFDSFWIRYFEFVSKGDAIVLTVPGSERSYDLTGLKPGTEYVVNILGVKGGSISPPLSAIFTT

Kd [15]: 5.1 nM
B13: ECB106 (designed binder, not shown: small tags and cut ends)
chain: MLPAPKNLVVSEVTEDSARLSWDDPHAFYESFLIQYQESEKVGEAIVLTVPGSERSYDLTGLKPGTEYTVSIYGVHNVYKDTNIRGLPLSAIFTTAPAPAPAPAPLPAPKNLVVSRVTEDSARLSWTAPDAAFDSFWIRYFEFLGSGEAIVLTVPGSERSYDLTGLKPGTEYVVNILGVKGGKISPPLSAIFTT

Kd [15]: 4.3 nM
B14: ECB94 (designed binder, not shown: small tags and cut ends)
chain: MLPAPKNLVVSEVTEDSARLSWDDPWAFYESFLIQYQESEKVGEAIVLTVPGSERSYDLTGLKPGTEYTVSIYGVHNVYKDTNIRGLPLSAIFTTAPAPAPAPAPLPAPKNLVVSRVTEDSARLSWTAPDAAFDSFWIRYFEFLGSGEAIVLTVPGSERSYDLTGLKPGTEYVVNILGVKGGKISPPLSAIFTT

Kd [15]: 9 nM
B15: ECB107 (designed binder, not shown: small tags and cut ends)
chain: MLPAPKNLVVSEVTEDSARLSWDDPHAFYESFLIQYQESEKVGEAIVLTVPGSERSYDLTGLKPGTEYTVSIYGVHNVYKDTNIRGLPLSAIFTTAPAPAPAPAPLPAPKNLVVSRVTEDSARLSWTAPDAAFDSFWIRYFEFVGSGEAIVLTVPGSERSYDLTGLKPGTEYVVNILGVKGGSISPPLSAIFTT
